From publication PMC10123090, “The MksG nuclease is the executing part of the bacterial plasmid defense system MksBEFG” (Nucleic Acids Research, 2023) come the findings set out here.

The term Kd denotes the equilibrium constant for the complex coming apart. Read a low Kd as higher affinity. The koff is the rate constant with which the complex falls apart. A low value points to a long-lived complex. By kon is commonly meant the rate constant with which the complex forms. Low values mean slower complex formation, high ones faster complex formation. For orientation: stoichiometry N means a count of units in the complex or per binding partner.

One data set concerns the target T1, MksBEF (Corynebacterium glutamicum, UniProt Q8NLY2).
T1 construct: gene Cgl2804; with Kleisin subunit MksF (MukF/JetA homologue); Kite subunit MksE (MukE/JetB homologue)
In words: EnzChek phosphate release. Type of data set: biochemical. To be noted: 2 mM Mg-ATP, 30 °C, with or without 50 ng/ul plasmid DNA (pBHK18).

In data set [1] the target is MksB (His10-MksB), condensin-like ATPase subunit of the Corynebacterium glutamicum MksBEFG complex (Corynebacterium glutamicum) (UniProt Q8NLY2). In words: BLI; BLItz, streptavidin biosensors; biotinylated bait immobilised (MksE 25 ug/ml, MksB 50 ug/ml or MksG 100 ug/ml), MksF as analyte 1-5 uM; BLI buffer 10 mM Na2HPO4, 137 mM NaCl, 2.7 mM KCl, 1.8 mM KH2PO4, 10 mM MgCl2, 5% glycerol, pH 7.4; 1:1 binding model. A general note: BLI is a label-free optical method that tracks binding on a fibre tip over time.
Chain of MksB (His10-MksB), condensin-like ATPase subunit of the Corynebacterium glutamicum MksBEFG complex (Corynebacterium glutamicum) (Q8NLY2 entry or part of it, one chain of several): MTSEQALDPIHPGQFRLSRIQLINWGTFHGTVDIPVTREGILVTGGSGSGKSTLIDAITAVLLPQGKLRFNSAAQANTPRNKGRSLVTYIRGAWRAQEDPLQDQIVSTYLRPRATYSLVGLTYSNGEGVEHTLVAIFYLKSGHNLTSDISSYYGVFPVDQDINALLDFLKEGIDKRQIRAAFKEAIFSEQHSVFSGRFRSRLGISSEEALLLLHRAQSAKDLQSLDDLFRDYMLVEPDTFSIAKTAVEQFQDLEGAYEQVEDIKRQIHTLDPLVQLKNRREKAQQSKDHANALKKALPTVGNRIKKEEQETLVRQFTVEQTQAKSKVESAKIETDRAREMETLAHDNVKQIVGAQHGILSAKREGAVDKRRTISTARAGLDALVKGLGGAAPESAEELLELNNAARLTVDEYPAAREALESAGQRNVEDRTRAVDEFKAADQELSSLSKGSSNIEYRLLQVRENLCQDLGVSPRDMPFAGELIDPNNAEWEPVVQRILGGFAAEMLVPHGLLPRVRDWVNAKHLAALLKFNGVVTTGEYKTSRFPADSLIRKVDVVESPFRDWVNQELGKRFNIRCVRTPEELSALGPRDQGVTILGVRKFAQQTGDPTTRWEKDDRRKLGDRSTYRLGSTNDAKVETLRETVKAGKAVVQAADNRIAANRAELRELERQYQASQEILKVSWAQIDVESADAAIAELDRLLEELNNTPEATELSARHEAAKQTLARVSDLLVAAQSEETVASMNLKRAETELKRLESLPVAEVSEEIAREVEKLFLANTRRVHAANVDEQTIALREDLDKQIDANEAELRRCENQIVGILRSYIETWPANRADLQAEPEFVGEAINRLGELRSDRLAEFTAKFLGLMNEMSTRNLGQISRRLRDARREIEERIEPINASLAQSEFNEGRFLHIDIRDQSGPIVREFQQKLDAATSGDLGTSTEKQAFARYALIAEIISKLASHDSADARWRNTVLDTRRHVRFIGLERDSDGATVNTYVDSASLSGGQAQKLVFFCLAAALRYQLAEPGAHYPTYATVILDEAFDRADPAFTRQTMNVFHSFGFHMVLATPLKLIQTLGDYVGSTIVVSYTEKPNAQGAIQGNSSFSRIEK

Data set [2] has as its target MksE (His6-MksE), kite subunit of the Corynebacterium glutamicum MksBEFG complex (Corynebacterium glutamicum) (UniProt Q8NLY1). Described as above.
Data set [3] deals with the molecule itself. In words: crystal structure; X-ray, 4.6 A, solved by molecular replacement with AlphaFold2 domain models; crystals in 10% PEG 6K, 30% ethanol, 10 mM sodium acetate.
In data set [4] the target is T2, MksF (His6-MksF), kleisin subunit of the Corynebacterium glutamicum MksBEFG complex (Corynebacterium glutamicum, UniProt Q8NLY0 1-495).
T2 construct: MksF of Corynebacterium glutamicum, gene mksF (cg3106), amplified from genomic DNA and ligated NdeI/BamHI into pET28a (plasmid pMG001); Analyte in the BLI experiments with constants; biotinylated (EZ-Link NHS-PEG4, ratio 3:1) where used as bait; Also purified together with MksE; also called cg3106; source: E. coli BL21 (DE3) pLysS, purified (Ni-NTA, SEC)
T2 sequence (looked up): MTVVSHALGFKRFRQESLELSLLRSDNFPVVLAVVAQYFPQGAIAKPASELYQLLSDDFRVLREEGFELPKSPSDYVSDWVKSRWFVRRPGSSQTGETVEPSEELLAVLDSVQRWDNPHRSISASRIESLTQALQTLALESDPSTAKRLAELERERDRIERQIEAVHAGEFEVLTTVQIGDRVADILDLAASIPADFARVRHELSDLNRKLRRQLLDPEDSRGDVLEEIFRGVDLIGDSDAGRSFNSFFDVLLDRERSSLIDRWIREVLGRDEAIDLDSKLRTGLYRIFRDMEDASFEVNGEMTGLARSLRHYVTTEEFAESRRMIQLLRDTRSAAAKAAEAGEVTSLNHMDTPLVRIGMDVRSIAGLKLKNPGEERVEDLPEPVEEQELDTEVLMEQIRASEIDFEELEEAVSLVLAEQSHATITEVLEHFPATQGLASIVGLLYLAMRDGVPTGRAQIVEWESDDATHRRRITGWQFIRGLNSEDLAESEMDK
In words: BLI; BLItz, streptavidin biosensors; biotinylated bait immobilised (MksE 25 ug/ml, MksB 50 ug/ml or MksG 100 ug/ml), MksF as analyte 1-5 uM; BLI buffer 10 mM Na2HPO4, 137 mM NaCl, 2.7 mM KCl, 1.8 mM KH2PO4, 10 mM MgCl2, 5% glycerol, pH 7.4; 1:1 binding model. The note with it: both partners purified.

Chain of MksE (His6-MksE), kite subunit of the Corynebacterium glutamicum MksBEFG complex (Corynebacterium glutamicum) (Q8NLY1 entry or part of it, one chain of several): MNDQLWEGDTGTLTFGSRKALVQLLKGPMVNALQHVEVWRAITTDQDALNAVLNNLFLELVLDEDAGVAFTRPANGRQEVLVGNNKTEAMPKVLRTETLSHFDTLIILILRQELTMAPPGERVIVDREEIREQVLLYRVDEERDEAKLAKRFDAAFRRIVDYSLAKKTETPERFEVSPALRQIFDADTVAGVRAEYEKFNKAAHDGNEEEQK
T1 sequence (Q8NLY2 entry or part of it, one chain of several): as the sequence (Q8NLY2 entry or part of it, one chain of several) above
T1 sequence (Q8NLY1 entry or part of it, one chain of several, further chain): as the sequence (Q8NLY1 entry or part of it, one chain of several) above

`Nc1ncnc2c1ncn2[C@@H]1O[C@H](COP(=O)(O)OP(=O)(O)OP(=O)(O)O)[C@@H](O)[C@H]1O` [ATP]: at MksBEF, the EnzChek phosphate release entry is “kleisin subunit MksF and the kite subunit MksE stimulated the ATPase activity of MksB”.
In data set [1], “MksF (His6-MksF), kleisin subunit of the Corynebacterium glutamicum MksBEFG complex (from UniProt Q8NLY0 1-495) (natural protein)” yielded a Kd of 4.94 µM, an off-rate (koff) of 0.138 s⁻¹ and a kon of 27800 M⁻¹ s⁻¹. In data set [2], this molecule yielded a Kd of 2170 nM, a dissociation rate constant (koff) of 0.16 s⁻¹ and a kon of 74200 M⁻¹ s⁻¹.

B1: MksG, 6xHis-SUMO-tagged construct for crystallization (enzyme, Corynebacterium glutamicum)
chain: MPLFIDDALHRSKKYFHAHLSELLLGEFAGLSLPLHPPTAAKAAADIDATREFIRQWEGRDDVEYAIRNWSPVGLGKTEVPVRLTLNTTEELVVFAQVEDEWSSLHERFSQLSGFTAEVVAKHVSLWRSLSNDDLSKAVLVVDWFLKHPNSGLLKRAVAVEGVHTKWLENHRVLIETLVADKRGEPGRADLGLGDAEARVRLRFHSVDAPAGLTDIEVPLSNLCELQEPQVILMVENLDSFLALPTWPGVTIAWGAGYRAVDIVRGPYFSNGRLLYWGDLDLDGFKILDGVRSHVPHTESVLMNSETVSRWRYLGVADREFKAESFDNLHDFESDALDLLITDGELRIEQERIRLDVAVEEIEKVIRG
notes: MksG of Corynebacterium glutamicum (cg3103), amplified from pMG003 and subcloned into a pET28 derivative with an N-terminal 6xHis-SUMO tag; The methods tell of no cleavage of the 6xHis-SUMO tag before crystallization; also called 6xHis-SUMO-MksG; source: E. coli BL21 C41, purified (Ni-NTA, SEC)
Regarding B1, the “stoichiometry N” value in data set [3] was found to be 2.

B2: MksG (His6-MksG), nuclease subunit of the Corynebacterium glutamicum MksBEFG complex (enzyme)
chain: B1 chain
notes: MksG of Corynebacterium glutamicum, gene mksG (cg3103), amplified from genomic DNA and ligated NdeI/BamHI into pET28a (plasmid pMG003); Biotinylated (EZ-Link NHS-PEG4, ratio 3:1) where used as bait in BLI; The methods speak of 'dimeric MksG'; also called cg3103; source: E. coli BL21 (DE3) pLysS, purified (Ni-NTA, SEC)
Turning to B2, in data set [4], the Kd was 6 µM, the koff is 0.136 s⁻¹ and the on-rate (kon) was determined as 22500 M⁻¹ s⁻¹.
